According to paper PMC5901963 (Nature, 2017):

How the values were obtained:
[1] = molecular target: bacTMEM175 from Chryseobacterium sp (Chryseobacterium sp); assay: cross-linking
[2] = molecular target: bacTMEM175 from Streptomyces collinus (Streptomyces collinus); assay: cross-linking
[3] = molecular target: the molecule itself; assay: crystal structure

bacTMEM175 from Chryseobacterium sp (natural protein)
stoichiometry N [1]: 4

bacTMEM175 from Streptomyces collinus (natural protein)
stoichiometry N [2]: 4

B1: TMEM175 from Chamaesiphon minutus (CmTMEM175) (natural protein, UniProt K9UJK2 1-203, looked up)
chain: MVEAPEQSETGRIEAFSDGVFAIAITLLVLEIKVPQHKIVETVGLVSSLLSLWPSYLAFLTSFASILVMWVNHHRIFSLVARTDHAFFYWNGLLLMLVTFVPFPTALLAEYLIHPQARVAASVYAGIFLAIAIVFNRLWKHAATADRLLAQKADRHEVDAITKQYRFGPGLYLVAFALSFISVWLSVGVCFVLAIYFALRSNA
stoichiometry N [3]: 4
